Experimental data from paper PMC1447668, “Foxp3 Represses Retroviral Transcription by Targeting Both NF-κB and CREB Pathways” (PLoS Pathogens, 2006).

Molecular target: cAMP-responsive element binding protein CREB-1 (UniProt P16220 1-327)
Assay: cell-based or functional assay

cAMP-responsive element binding protein CREB-1, sequence (P16220 whole entry): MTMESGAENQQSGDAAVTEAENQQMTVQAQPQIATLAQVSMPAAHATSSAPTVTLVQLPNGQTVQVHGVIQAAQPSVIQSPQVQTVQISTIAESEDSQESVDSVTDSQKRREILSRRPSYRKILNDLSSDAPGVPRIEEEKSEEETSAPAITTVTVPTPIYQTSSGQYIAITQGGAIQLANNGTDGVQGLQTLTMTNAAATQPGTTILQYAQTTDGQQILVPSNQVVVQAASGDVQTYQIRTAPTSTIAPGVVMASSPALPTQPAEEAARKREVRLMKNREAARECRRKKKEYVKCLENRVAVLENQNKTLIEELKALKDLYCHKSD

basal levels of Gal4-BD-CREB-1 activation of a Gal4 luciferase reporter in HEK 293T cells with Foxp3 overexpressed (Figure 7C): > 2 fold
B1: human Foxp3 (natural protein, UniProt Q9BZS1 1-431, looked up)
chain: MPNPRPGKPSAPSLALGPSPGASPSWRAAPKASDLLGARGPGGTFQGRDLRGGAHASSSSLNPMPPSQLQLPTLPLVMVAPSGARLGPLPHLQALLQDRPHFMHQLSTVDAHARTPVLQVHPLESPAMISLTPPTTATGVFSLKARPGLPPGINVASLEWVSREPALLCTFPNPSAPRKDSTLSAVPQSSYPLLANGVCKWPGCEKVFEEPEDFLKHCQADHLLDEKGRAQCLLQREMVQSLEQQLVLEKEKLSAMQAHLAGKMALTKASSVASSDKGSCCIVAAGSQGPVVPAWSGPREAPDSLFAVRRHLWGSHGNSTFPEFLHNMDYFKFHNMRPPFTYATLIRWAILEAPEKQRTLNEIYHWFTRMFAFFRNHPATWKNAIRHNLSLHKCFVRVESEKGAVWTVDELEFRKKRSQRPSRCSNPTPGP
